Experimental data from patent US20180002415A1 (Chugai, published 2018).

T1: recombinant cynomolgus monkey C5 (cynomolgus monkey, UniProt P01031 20-1676 (human entry), limits assumed)
T1 construct: also called cynoC5
T1 chain: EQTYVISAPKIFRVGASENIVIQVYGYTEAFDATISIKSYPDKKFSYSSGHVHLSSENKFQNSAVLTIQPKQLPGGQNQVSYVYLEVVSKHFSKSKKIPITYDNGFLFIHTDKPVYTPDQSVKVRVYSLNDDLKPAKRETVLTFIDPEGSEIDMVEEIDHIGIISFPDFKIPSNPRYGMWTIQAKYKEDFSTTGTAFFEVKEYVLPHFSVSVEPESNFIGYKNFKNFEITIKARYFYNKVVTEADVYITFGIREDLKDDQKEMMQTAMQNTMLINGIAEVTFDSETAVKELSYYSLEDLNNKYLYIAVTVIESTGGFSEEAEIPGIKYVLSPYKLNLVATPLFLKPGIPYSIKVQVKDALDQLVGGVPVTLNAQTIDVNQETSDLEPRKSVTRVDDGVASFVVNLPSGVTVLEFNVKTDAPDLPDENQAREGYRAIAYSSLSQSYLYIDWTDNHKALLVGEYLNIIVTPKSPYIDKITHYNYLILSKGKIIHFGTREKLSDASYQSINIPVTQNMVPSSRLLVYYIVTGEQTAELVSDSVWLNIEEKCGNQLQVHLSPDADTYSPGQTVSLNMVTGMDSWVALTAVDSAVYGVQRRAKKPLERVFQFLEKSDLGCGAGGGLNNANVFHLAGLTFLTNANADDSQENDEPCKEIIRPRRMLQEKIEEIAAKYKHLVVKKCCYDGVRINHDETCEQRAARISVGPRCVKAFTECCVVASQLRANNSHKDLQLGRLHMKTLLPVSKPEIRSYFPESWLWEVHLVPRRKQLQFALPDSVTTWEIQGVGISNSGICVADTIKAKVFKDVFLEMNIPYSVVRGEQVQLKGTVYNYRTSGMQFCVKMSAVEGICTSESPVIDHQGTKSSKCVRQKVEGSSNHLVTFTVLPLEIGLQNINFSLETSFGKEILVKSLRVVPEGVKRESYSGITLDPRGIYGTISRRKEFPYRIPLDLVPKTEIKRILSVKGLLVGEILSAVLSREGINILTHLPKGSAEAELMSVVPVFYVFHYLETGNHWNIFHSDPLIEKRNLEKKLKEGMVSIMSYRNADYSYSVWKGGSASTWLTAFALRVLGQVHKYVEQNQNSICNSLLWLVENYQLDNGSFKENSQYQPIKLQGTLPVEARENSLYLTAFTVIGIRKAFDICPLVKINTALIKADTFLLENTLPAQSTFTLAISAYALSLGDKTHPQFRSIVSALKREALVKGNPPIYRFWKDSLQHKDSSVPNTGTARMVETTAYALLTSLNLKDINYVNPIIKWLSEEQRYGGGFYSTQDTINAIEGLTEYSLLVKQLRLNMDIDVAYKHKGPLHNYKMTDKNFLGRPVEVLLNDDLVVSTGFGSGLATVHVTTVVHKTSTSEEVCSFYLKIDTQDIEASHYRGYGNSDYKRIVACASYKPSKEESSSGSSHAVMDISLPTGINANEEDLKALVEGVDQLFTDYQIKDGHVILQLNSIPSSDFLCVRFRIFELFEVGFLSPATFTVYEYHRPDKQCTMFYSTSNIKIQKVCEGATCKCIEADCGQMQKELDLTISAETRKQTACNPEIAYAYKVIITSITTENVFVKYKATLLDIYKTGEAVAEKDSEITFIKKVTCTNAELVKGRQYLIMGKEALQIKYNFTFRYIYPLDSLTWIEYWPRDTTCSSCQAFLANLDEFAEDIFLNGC

T2: 321-500
T2 construct: Expressed in E. coli
T2 GST fusion polypeptide: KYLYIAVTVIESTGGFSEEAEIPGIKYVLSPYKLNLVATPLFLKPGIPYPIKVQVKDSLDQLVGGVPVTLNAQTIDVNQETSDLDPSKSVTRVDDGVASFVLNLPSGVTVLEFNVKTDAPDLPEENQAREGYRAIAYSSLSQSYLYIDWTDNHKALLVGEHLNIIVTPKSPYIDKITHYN

T3: 481-660
T3 construct: Expressed in E. coli
T3 GST fusion polypeptide: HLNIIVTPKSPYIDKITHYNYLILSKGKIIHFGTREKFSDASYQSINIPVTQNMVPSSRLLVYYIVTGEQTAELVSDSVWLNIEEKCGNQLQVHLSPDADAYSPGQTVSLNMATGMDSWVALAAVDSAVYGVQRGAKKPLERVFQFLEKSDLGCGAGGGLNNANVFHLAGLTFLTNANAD

T4: 161-340
T4 construct: Expressed in E. coli
T4 GST fusion polypeptide: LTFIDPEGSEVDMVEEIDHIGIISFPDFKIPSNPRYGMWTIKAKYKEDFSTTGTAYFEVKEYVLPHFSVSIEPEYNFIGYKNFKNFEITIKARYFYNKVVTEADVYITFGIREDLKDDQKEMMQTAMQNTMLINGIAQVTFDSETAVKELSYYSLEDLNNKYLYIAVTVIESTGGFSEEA


Columns and labels:
[1] = target: T1, recombinant cynomolgus monkey C5; test: SPR (Biacore), 37C, pH 7.4, Ab captured on ProA/G
Description: To observe the cross-reactivity of anti-C5 antibodies against human C5 (hC5) and cynomolgus monkey C5 (cynoC5), BIACORE® kinetics analysis was performed.

[2] = target: T2, 321-500; test: summary drawing of the binding reactions to C5 beta-chain fragments
[3] = target: T3, 481-660; test: as above
[4] = target: T5, C5 peptide 33-108 fused to GST-tag (human, UniProt P01031 33-108); test: as above
T5 construct: not shown: GST-tag (glutathione S-transferase); vector and linker not restated
T5 sequence (P01031 33-108): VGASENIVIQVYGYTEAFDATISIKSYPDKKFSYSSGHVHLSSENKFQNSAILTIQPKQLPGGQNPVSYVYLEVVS

[5] = target: T6, C5 peptide 45-111 fused to GST-tag (human, UniProt P01031 45-111); test: as above
T6 construct: not shown: GST-tag (glutathione S-transferase); vector and linker not restated
T6 sequence (P01031 45-111): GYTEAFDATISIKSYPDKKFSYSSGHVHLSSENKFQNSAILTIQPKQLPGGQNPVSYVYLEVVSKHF

[6] = target: T7, C5 peptide 45-124 fused to GST-tag (human, UniProt P01031 45-124); test: as above
T7 construct: not shown: GST-tag (glutathione S-transferase); vector and linker not restated
T7 sequence (P01031 45-124): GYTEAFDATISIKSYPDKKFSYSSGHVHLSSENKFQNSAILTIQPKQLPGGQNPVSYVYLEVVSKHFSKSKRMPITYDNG

[7] = target: T8, C5 peptide 52-124 fused to GST-tag (human, UniProt P01031 52-124); test: as above
T8 construct: not shown: GST-tag (glutathione S-transferase); vector and linker not restated
T8 sequence (P01031 52-124): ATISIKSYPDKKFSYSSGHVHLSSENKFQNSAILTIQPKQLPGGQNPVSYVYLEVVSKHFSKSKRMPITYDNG

[8] = target: T9, C5 peptide 33-111 fused to GST-tag (human, UniProt P01031 33-111); test: as above
T9 construct: not shown: GST-tag (glutathione S-transferase); vector and linker not restated
T9 sequence (P01031 33-111): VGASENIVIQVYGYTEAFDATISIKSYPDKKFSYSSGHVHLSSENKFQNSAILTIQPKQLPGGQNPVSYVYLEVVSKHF

[9] = target: T4, 161-340; test: Western blot of E. coli lysates expressing GST-fused C5 beta-chain fragments
Description: (§1) Anti-C5 monoclonal antibodies (MAbs) were tested for binding to C5 β-chain-derived peptides in Western blot analysis. […] The E. coli samples were harvested after incubation with 1 mM Isopropyl β-D-1-thiogalactopyranoside (IPTG) for 5 hours at 37° C., and centrifuged at 20000×g for 1 min to obtain pellets.

[10] = target: T10, recombinant human C5 (human, UniProt P01031 20-1676); test: SPR (Biacore), 37C, association at pH 7.4, dissociation at pH 5.8
T10 construct: Also used for the C5 of normal human serum in the functional rows; also called hC5; rhC5
Description: (§2) The kinetic parameters of anti-C5 antibodies against recombinant human C5 were assessed at 37° C. using BIACORE® T200 instrument (GE Healthcare) at three different conditions; (1) both association and dissociation were at pH7.4, (2) both association and dissociation were at pH5.8, and (3) association was at pH7.4 but dissociation was at pH5.8. ProA/G (Pierce) was immobilized onto a CM1 sensorchip using amine coupling kit (GE Healthcare) according to the recommended settings by GE Healthcare. Antibodies and analytes for condition (1) and (3) were diluted in ACES pH7.4 buffer (20 mM ACES, 150 mM NaCl, 1.2 mM CaCl₂, 0.05% Tween 20, 0.005% NaN₃) and for condition (2) they were diluted in ACES pH5.8 buffer (20 mM ACES, 150 mM NaCl, 1.2 mM CaCl₂, 0.05% Tween 20, 0.005% NaN₃). […] The surface was regenerated using 25 mM NaOH. Kinetic parameters at condition (1) and (2) were determined by fitting the sensorgrams with a 1:1 binding model and the dissociation rate at condition (3) was determined by fitting the sensorgrams with a 1:1 dissociation for MCK model using BIACORE® T200 Evaluation software, version 2.0 (GE Healthcare). pH dependency of all antibodies were shown as ratio of dissociation rate of condition (2) and (1).

[11] = target: T10, recombinant human C5; test: SPR (Biacore), ratio of dissociation rates of conditions (2) and (1)
Description: as §2

[12] = target: T10, recombinant human C5; test: SPR (Biacore), 37C, association and dissociation at pH 5.8, Ab on ProA/G
Description: as §2

[13] = target: T10, recombinant human C5; test: SPR (Biacore), 37C, association and dissociation at pH 7.4, Ab on ProA/G
Description: as §2

[14] = target: recombinant MG1-MG2 domain of human C5 β-chain (human, UniProt P01031 20-225); test: SPR (BIACORE T200, 37 C, pH7.4): antibody captured by ProA/G, MG1-MG2 domain injected (20 and 40 nM per paragraph 378; concentration of the curves not printed on the sheet)
Description: ProA/G (Pierce) was immobilized onto a CM4 sensorchip using amine coupling kit (GE Healthcare) according to the recommended settings by GE Healthcare. Antibodies and analytes were diluted into the respective running buffers, ACES pH7.4 and pH5.8 (20 mM ACES, 150 mM NaCl, 1.2 mM CaCl₂, 0.05% Tween 20, 0.005% NaN₃). […] The surface was regenerated using 25 mM NaOH. Kinetic parameters at both pH conditions were determined by fitting the sensorgrams with 1:1 binding model using BIACORE® T200 Evaluation software, version 2.0 (GE Healthcare).
The MG1-MG2 domain was injected at concentrations of 20 nM and 40 nM.

[15] = target: T2, 321-500; test: Western blot of E. coli lysates expressing GST-fused C5 beta-chain fragments
Description: as §1

| Binder | Kd [1] [nM] | binding result [2] | binding result [3] | binding result [4] | binding result [5] | binding result [6] | binding result [7] | binding result [8] | binding result [9] | koff [10] [s⁻¹] | pH dependency (kd pH 5.8 / kd pH 7.4) [11] [fold] | koff [12] [s⁻¹] | kon [12] [M⁻¹ s⁻¹] | koff [13] [s⁻¹] | kon [13] [M⁻¹ s⁻¹] | binding result [15] | binding result [14] |
| --- | --- | --- | --- | --- | --- | --- | --- | --- | --- | --- | --- | --- | --- | --- | --- | --- | --- |
| 305LO20-SG422 (antibody, human IgG4, Modified human IgG4 CH SG422, human CL SK1) heavy: QVQLVESGGGLVQPGGSLRLSCAASGFTVHSSYYMAWVRQAPGKGLEWVGAIFTGSGAEYKAEWAKGRVTISKDTSKNQVVLTMTNMDPVDTATYYCASDAGYDYPTHAMHYWGQGTLVTVSSASTKGPSVFPLAPCSRSTSGGTAALGCLVKDYFPEPVTVSWNSGALTSGVHTFPAVLQSSGLYSLSSVVTVPSSSLGTKTYTCNVDHKPSNTKVDKRVESKYGPPCPPCPAPEFRRGPKVFLFPPKPKDTLMISRTPEVTCVVVDVSHEDPEVKFNWYVDGVEVHNAKTKPREEQYNSTYRVVSVLTVLHQDWLNGKEYKCKVSNKGLPSSIEKTISKAKGQPREPQVYTLPPSREEMTKNQVSLTCLVKGFYPSDIAVEWESNGQPENNYKTTPPVLDSDGSFFLYSKLTVDKSRWQQGNVFSCSVLHEALHAHYTRKELSLSP light: DIQMTQSPSSLSASVGDRVTITCRASQGISSSLAWYQQKPGQAPRLLIYGASETESGVPSRFSGSGSGTDFTLTISSLQPEDFATYYCQNTKVGSSYGNTFGGGTKVEIKRTVAAPSVFIFPPSDEQLKSGTASVVCLLNNFYPREAKVQWKVDNALQSGNSQESVTEQDSKDSTYSLSSTLTLSKADYEKHKVYACEVTHQGLSSPVTKSFNRGEC |  |  |  |  |  |  |  |  |  | 0.0155 | 17.3 | 0.00815 | 136000 | 0.00047 | 1.35e+06 |  |  |
| eculizumab-F760G4 (antibody, human IgG4 S228P, kappa, EcuH VH fused to modified human IgG4 CH F760G4; EcuL VL fused to k0 light chain constant region) heavy: not shown light: DIQMTQSPSSLSASVGDRVTITCGASENIYGALNWYQQKPGKAPKLLIYGATNLADGVPSRFSGSGSGTDFTLTISSLQPEDFATYYCQNVLNTPLTFGQGTKVEIKRTVAAPSVFIFPPSDEQLKSGTASVVCLLNNFYPREAKVQWKVDNALQSGNSQESVTEQDSKDSTYSLSSTLTLSKADYEKHKVYACEVTHQGLSSPVTKSFNRGEC |  |  |  |  |  |  |  |  |  |  |  |  |  |  |  |  | no binding (tested: 40 nM (not printed on the sheet)) |

More lines, main results first:

| Kd [1] [nM] | binding result [2] | binding result [3] | binding result [4] | binding result [5] | binding result [6] | binding result [7] | binding result [8] | binding result [9] | koff [10] [s⁻¹] | pH dependency (kd pH 5.8 / kd pH 7.4) [11] [fold] | koff [12] [s⁻¹] | kon [12] [M⁻¹ s⁻¹] | koff [13] [s⁻¹] | kon [13] [M⁻¹ s⁻¹] | binding result [15] | Binder | binding result [14] |
| --- | --- | --- | --- | --- | --- | --- | --- | --- | --- | --- | --- | --- | --- | --- | --- | --- | --- |
| 7.68 | no binding | no binding | no binding | no binding | no binding | no binding | no binding | no binding |  |  |  |  |  |  |  | CFA0307 (antibody, V domains shown, Chimeric, rabbit V regions; also called CFA0307-F760G4) VH: QSLEESGGGLVKPGASLTLTCKASGIDFSNFYYICWVRQAPGKGLDLIACIYTVSGYTYYASWAKGRLTISKTSSTTVTLQMTSLTAADTATYFCARDLHAGITNLWGPGTLVTVSS VL: AIEMTQTPFSVSAAVGGTVTIKCQASQNIYSNLAWYQQKPGQRPKLLIYGASNLESGVPSRFKGSGSGTEYTLTISDLECADAATYYCLQGYSYSNVDDAFGGGTEVVVK |  |
| 1.29 |  | no binding | no binding | no binding | no binding | no binding | no binding | no binding |  |  |  |  |  |  | no binding | CFA0675 (antibody, V domains shown, Chimeric, rabbit V regions; also called CFA0675-F760G4) VH: QSVEESGGRLVTPGTPLTLTCTVSGFSLSTYAMGWVRQAPGKGLEWIGTIDTGDNSFYANWAKGRFTISRTSTTVDLKITSPTAEDTATYFCARNDGSVYNLFNLWGPGTLVTVSS VL: DVVMTQTPASVSAAVGGTVTIKCQASENIYSALSWYQQKPGLRPRLLIYYASTLASGVPSRFKGSRSGTEFTLTISDLECADAASYYCQQYYDINSVDNTFGGGTKVVVE |  |
